Measurements: patent US20240368250A1 (Ablynx, published 2024)
Like-named read-outs stand apart in the source and are kept apart here.

Assays:
[1] = target: T1, Human serum albumin (HSA; Sigma-Aldrich Cat No. A8763) (human, UniProt P02768 25-609); assay: SPR Biacore 8K+, HSA on C1 chip, pH 7.4, bivalent analyte fit (KD1)
[2] = target: T1, Human serum albumin (HSA; Sigma-Aldrich …); assay: SPR Biacore 8K+, HSA on C1 chip, pH 7.4, bivalent analyte fit (ka1)
[3] = target: T1, Human serum albumin (HSA; Sigma-Aldrich …); assay: SPR Biacore 8K+, HSA on C1 chip, pH 7.4, bivalent analyte fit (kd1)
[4] = target: T2, Mouse serum albumin (MSA; Albumin Bioscience Cat No. 2601) (mouse, UniProt P07724 25-608); assay: SPR Biacore 8K+, MSA on C1 chip, pH 7.4, bivalent analyte fit (KD1)
[5] = target: T2, Mouse serum albumin (MSA; Albumin …); assay: SPR Biacore 8K+, MSA on C1 chip, pH 7.4, bivalent analyte fit (ka1)
[6] = target: T2, Mouse serum albumin (MSA; Albumin …); assay: SPR Biacore 8K+, MSA on C1 chip, pH 7.4, bivalent analyte fit (kd1)
[7] = target: T3, Human FcRn (biotinylated human FcRn) (human, UniProt P61769 21-119); assay: SPR Biacore 8K+, biotinylated hFcRn on SA chip (~500-600 RU), pH 6.0, bivalent analyte fit;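 further: analytes were Fc proteins binding to biotinylated human FcRn captured on a Series S streptavidin sensor chip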
T3 construct: Biotinylated human FcRn captured on a Series S Sensor Chip SA; also called human neonatal Fc receptor; hFcRn

[8] = target: T3, Human FcRn (biotinylated human FcRn); assay: SPR Biacore 8K+, biotinylated hFcRn on SA chip (~500-600 RU), pH 6.0, bivalent analyte fit (KD1)
[9] = target: T3, Human FcRn (biotinylated human FcRn); assay: SPR Biacore 8K+, biotinylated hFcRn on SA chip (~500-600 RU), pH 6.0, bivalent analyte fit (ka1)
[10] = target: T3, Human FcRn (biotinylated human FcRn); assay: SPR Biacore 8K+, biotinylated hFcRn on SA chip (~500-600 RU), pH 6.0, bivalent analyte fit (kd1)
[11] = target: T1, Human serum albumin (HSA; Sigma-Aldrich …); assay: SPR Biacore 8K+, HSA on C1 chip, pH 7.4, off-rate column
[12] = target: T2, Mouse serum albumin (MSA; Albumin …); assay: SPR Biacore 8K+, MSA on C1 chip, pH 7.4, off-rate column
[13] = target: T1, Human serum albumin (HSA; Sigma-Aldrich …); assay: SPR Biacore 8K+, HSA on C1 chip, pH 7.4, bivalent analyte fit (KD1); remark: listed apart in the source
[14] = target: T1, Human serum albumin (HSA; Sigma-Aldrich …); assay: SPR Biacore 8K+, HSA on C1 chip, pH 7.4, bivalent analyte fit (ka1); remark: listed apart in the source
[15] = target: T1, Human serum albumin (HSA; Sigma-Aldrich …); assay: SPR Biacore 8K+, HSA on C1 chip, pH 7.4, bivalent analyte fit (kd1); remark: listed apart in the source
[16] = target: T2, Mouse serum albumin (MSA; Albumin …); assay: SPR Biacore 8K+, MSA on C1 chip, pH 7.4, bivalent analyte fit (KD1); remark: listed apart in the source
[17] = target: T2, Mouse serum albumin (MSA; Albumin …); assay: SPR Biacore 8K+, MSA on C1 chip, pH 7.4, bivalent analyte fit (ka1); remark: listed apart in the source
[18] = target: T2, Mouse serum albumin (MSA; Albumin …); assay: SPR Biacore 8K+, MSA on C1 chip, pH 7.4, bivalent analyte fit (kd1); remark: listed apart in the source
[19] = target: T3, Human FcRn (biotinylated human FcRn); assay: SPR Biacore 8K+, biotinylated hFcRn on SA chip (~700 RU), pH 6.0, bivalent analyte fit
[20] = target: T3, Human FcRn (biotinylated human FcRn); assay: SPR Biacore 8K+, biotinylated hFcRn on SA chip (~700 RU), pH 6.0, bivalent analyte fit (KD1)
[21] = target: T3, Human FcRn (biotinylated human FcRn); assay: SPR Biacore 8K+, biotinylated hFcRn on SA chip (~700 RU), pH 6.0, bivalent analyte fit (ka1)
[22] = target: T3, Human FcRn (biotinylated human FcRn); assay: SPR Biacore 8K+, biotinylated hFcRn on SA chip (~700 RU), pH 6.0, bivalent analyte fit (kd1)
[23] = target: T1, Human serum albumin (HSA; Sigma-Aldrich …); assay: SPR Biacore 8K+, HSA on C1 chip, pH 7.4, 1:1 fit
[24] = target: T2, Mouse serum albumin (MSA; Albumin …); assay: SPR Biacore 8K+, MSA on C1 chip, pH 7.4, 1:1 fit (off-rate only)

Row | Binder | KD2 [7] [M] | ka2 [7] | kd2 [7] [s⁻¹] | Kd [8] [nM] | kon [9] [M⁻¹ s⁻¹] | koff [10] [s⁻¹] | ka2 [19] | kd2 [19] [s⁻¹] | Kd [20] [nM] | kon [21] [M⁻¹ s⁻¹] | koff [22] [s⁻¹] | other results
1 | TPP-66177 (Fc fusion, Symmetrical IgG4 FALA Fc fusion without knob-in-hole mutations, two C-terminal ALB23002 via 35GS; also called symmetrical ALB23002 ISVD-Fc polypeptide) DVQLVESGGGVVQAGGSLSISCAASGGSLSNYVLGWFRQAPGKEREFVAAINWRGDITIGPPNVEGRFTISRDNAKNTGYLQMNSLAPDDTALYYCGAGTPLNPGAYIYDWSYDYWGRGTLVTVSSDKTHTCPSCPAPEAAGGPSVFLFPPKPKDTLMISRTPEVTCVVVDVSQEDPEVQFNWYVDGVEVHNAKTKPREEQFNSTYRVVSVLTVLHQDWLNGKEYKCKVSNKGLPSSIEKTISKAKGQPREPQVYTLPPSQEEMTKNQVSLTCLVKGFYPSDIAVEWESNGQPENNYKTTPPVLDSDGSFFLYSKLTVDKSRWQEGNVFSCSVMHEALHNHYTQKSLSLSLGGGGGSGGGGSGGGGSGGGGSGGGGSGGGGSGGGGSEVQLVESGGGVVQPGGSLRLSCAASGFTFRSFGMSWVRQAPGKGPEWVSSISGSGSDTLYADSVKGRFTISRDNSKNTLYLQMNSLRPEDTALYYCTIGGSLSRSSQGTLVTVSSA | 3.64 | 4.07e-05 1/RUs | 0.000148 | 1690 | 51500 | 0.0872 |  |  |  |  |  | Kd [1]: 14.3 nM; kon [2]: 54300 M⁻¹ s⁻¹; koff [3]: 0.000776 s⁻¹; Kd [4]: 8.8 nM; kon [5]: 45900 M⁻¹ s⁻¹; koff [6]: 0.000404 s⁻¹
2 | TPP-66150 (Fc fusion) chain 1: DVQLVESGGGVVQAGGSLSISCAASGGSLSNYVLGWFRQAPGKEREFVAAINWRGDITIGPPNVEGRFTISRDNAKNTGYLQMNSLAPDDTALYYCGAGTPLNPGAYIYDWSYDYWGRGTLVTVSSDKTHTCPPCPAPEAAGGPSVFLFPPKPKDTLMISRTPEVTCVVVDVSQEDPEVQFNWYVDGVEVHNAKTKPREEQFNSTYRVVSVLTVLHQDWLNGKEYKCKVSNKGLPSSIEKTISKAKGQPREPQVYTLPPCQEEMTKNQVSLWCLVKGFYPSDIAVEWESNGQPENNYKTTPPVLDSDGSFFLYSKLTVDKSRWQEGNVFSCSVMHEALHNHYTQKSLSLSLG chain 2: DVQLVESGGGVVQAGGSLSISCAASGGSLSNYVLGWFRQAPGKEREFVAAINWRGDITIGPPNVEGRFTISRDNAKNTGYLQMNSLAPDDTALYYCGAGTPLNPGAYIYDWSYDYWGRGTLVTVSSDKTHTCPPCPAPEAAGGPSVFLFPPKPKDTLMISRTPEVTCVVVDVSQEDPEVQFNWYVDGVEVHNAKTKPREEQFNSTYRVVSVLTVLHQDWLNGKEYKCKVSNKGLPSSIEKTISKAKGQPREPQVCTLPPSQEEMTKNQVSLSCAVKGFYPSDIAVEWESNGQPENNYKTTPPVLDSDGSFFLVSKLTVDKSRWQEGNVFSCSVMHEALHNRFTQKSLSLSLGGGGGSGGGGSGGGGSGGGGSGGGGSGGGGSGGGGSDLGKKLLEAARAGQDDEVRELLKAGADVNAKDYFSHTPLHLAARNGHLKIVEVLLKAGADVNAKDFAGKTPLHLAANEGHLEIVEVLLKAGADVNAQDIFGKTPADIAADAGHEDIAEVLQKAA | 6.37 | 3.02e-05 1/RUs | 0.000192 | 1160 | 73900 | 0.0859 |  |  |  |  |  | binding result [11]: binds; binding result [12]: binds
3 | T-0263-00_TP123 (antibody, human IgG1, kappa, Full-length IgG1 knob-in-hole with two C-terminal ALB23002-A (9GS), one on each heavy chain) heavy 1: not shown heavy 2: EVQLVESGGGLVQPGGSLRLSCAASGFNIRDTYIHWVRQAPGKGLEWVARIYPTQGYTRYADSVKGRFTISADTSKNTAYLQMNSLRAEDTAVYYCSRWGGEGFYAMDYWGQGTLVTVSSASTKGPSVFPLAPSSKSTSGGTAALGCLVKDYFPEPVTVSWNSGALTSGVHTFPAVLQSSGLYSLSSVVTVPSSSLGTQTYICNVNHKPSNTKVDKKVEPKSCDKTHTCPPCPAPELLGGPSVFLFPPKPKDTLMISRTPEVTCVVVDVSHEDPEVKFNWYVDGVEVHNAKTKPREEQYNSTYRVVSVLTVLHQDWLNGKEYKCKVSNKALPAPIEKTISKAKGQPREPQVCTLPPSRDELTKNQVSLSCAVKGFYPSDIAVEWESNGQPENNYKTTPPVLDSDGSFFLVSKLTVDKSRWQQGNVFSCSVMHEALHNRFTQKSLSLSPGGGGGSGGGSEVQLVESGGGVVQPGGSLRLSCAASGFTFRSFGMSWVRQAPGKGPEWVSSISGSGSDTLYADSVKGRFTISRDNSKNTLYLQMNSLRPEDTALYYCTIGGSLSRSSQGTLVTVSSA light: not shown |  |  |  |  |  |  | 1.7e-05 1/RUs | 0.00059 | 2400 | 63000 | 0.15 | Kd [13]: 67.4 nM; kon [14]: 37500 M⁻¹ s⁻¹; koff [15]: 0.00253 s⁻¹; Kd [16]: 560 nM; kon [17]: 61400 M⁻¹ s⁻¹; koff [18]: 0.0344 s⁻¹
4 | T-0263-00_TP121 (antibody, human IgG1, kappa, Full-length IgG1 knob-in-hole with one C-terminal ALB23002-A (9GS) on chain 1) heavy 1: not shown heavy 2: EVQLVESGGGLVQPGGSLRLSCAASGFNIRDTYIHWVRQAPGKGLEWVARIYPTQGYTRYADSVKGRFTISADTSKNTAYLQMNSLRAEDTAVYYCSRWGGEGFYAMDYWGQGTLVTVSSASTKGPSVFPLAPSSKSTSGGTAALGCLVKDYFPEPVTVSWNSGALTSGVHTFPAVLQSSGLYSLSSVVTVPSSSLGTQTYICNVNHKPSNTKVDKKVEPKSCDKTHTCPPCPAPELLGGPSVFLFPPKPKDTLMISRTPEVTCVVVDVSHEDPEVKFNWYVDGVEVHNAKTKPREEQYNSTYRVVSVLTVLHQDWLNGKEYKCKVSNKALPAPIEKTISKAKGQPREPQVCTLPPSRDELTKNQVSLSCAVKGFYPSDIAVEWESNGQPENNYKTTPPVLDSDGSFFLVSKLTVDKSRWQQGNVFSCSVMHEALHNRFTQKSLSLSPG light: not shown |  |  |  |  |  |  | 1.8e-05 1/RUs | 0.00036 | 2300 | 71000 | 0.16 | Kd [23]: 76.4 nM; koff [23]: 0.00204 s⁻¹; kon [23]: 26700 M⁻¹ s⁻¹; koff [24]: 0.0385 s⁻¹
